In IntAct's records for PubMed 21145460:

B1: Regulator of nonsense transcripts 1 (Homo sapiens), Q92900-2 (parent)
chain: MSVEAYGPSSQTLTFLDTEEAELLGADTQGSEFEFTDFTLPSQTQTPPGGPGGPGGGGAGGPGGAGAGAAAGQLDAQVGPEGILQNGAVDDSVAKTSQLLAELNFEEDEEDTYYTKDLPIHACSYCGIHDPACVVYCNTSKKWFCNGRGNTSGSHIVNHLVRAKCKEVTLHKDGPLGETVLECYNCGCRNVFLLGFIPAKADSVVVLLCRQPCASQSSLKDINWDSSQWQPLIQDRCFLSWLVKIPSEQEQLRARQITAQQINKLEELWKENPSATLEDLEKPGVDEEPQHVLLRYEDAYQYQNIFGPLVKLEADYDKKLKESQTQDNITVRWDLGLNKKRIAYFTLPKTDSDMRLMQGDEICLRYKGDLAPLWKGIGHVIKVPDNYGDEIAIELRSSVGAPVEVTHNFQVDFVWKSTSFDRMQSALKTFAVDETSVSGYIYHKLLGHEVEDVIIKCQLPKRFTAQGLPDLNHSQVYAVKTVLQRPLSLIQGPPGTGKTVTSATIVYHLARQGNGPVLVCAPSNIAVDQLTEKIHQTGLKVVRLCAKSREAIDSPVSFLALHNQIRNMDSMPELQKLQQLKDETGELSSADEKRYRALKRTAERELLMNADVICCTCVGAGDPRLAKMQFRSILIDESTQATEPECMVPVVLGAKQLILVGDHCQLGPVVMCKKAAKAGLSQSLFERLVVLGIRPIRLQVQYRMHPALSAFPSNIFYEGSLQNGVTAADRVKKGFDFQWPQPDKPMFFYVTQGQEEIASSGTSYLNRTEAANVEKITTKLLKAGAKPDQIGIITPYEGQRSYLVQYMQFSGSLHTKLYQEVEIASVDAFQGREKDFIILSCVRANEHQGIGFLNDPRRLNVALTRARYGVIIVGNPKALSKQPLWNHLLNYYKEQKVLVEGPLNNLRESLMQFSKPRKLVNTINPGARFMTTAMYDAREAIIPGSVYDRSSQGRPSSMYFQTHDQIGMISAGPSHVAAMNIPIPFNLVMPPMPPPGYFGQANGPAAGRGTPKGKTGRGGRQKNRFGLPGPSQTNLPNSQASQDVASQPFSQGALTQGYISMSQPSQMSQPGLSQPELSQDSYLGDEFKSQIDVALSQDSTYQGERAYQHGGVTGLSQY
B2: Regulator of nonsense transcripts 1 (Homo sapiens), Q92900-2 (parent)
chain: B1 chain
partner: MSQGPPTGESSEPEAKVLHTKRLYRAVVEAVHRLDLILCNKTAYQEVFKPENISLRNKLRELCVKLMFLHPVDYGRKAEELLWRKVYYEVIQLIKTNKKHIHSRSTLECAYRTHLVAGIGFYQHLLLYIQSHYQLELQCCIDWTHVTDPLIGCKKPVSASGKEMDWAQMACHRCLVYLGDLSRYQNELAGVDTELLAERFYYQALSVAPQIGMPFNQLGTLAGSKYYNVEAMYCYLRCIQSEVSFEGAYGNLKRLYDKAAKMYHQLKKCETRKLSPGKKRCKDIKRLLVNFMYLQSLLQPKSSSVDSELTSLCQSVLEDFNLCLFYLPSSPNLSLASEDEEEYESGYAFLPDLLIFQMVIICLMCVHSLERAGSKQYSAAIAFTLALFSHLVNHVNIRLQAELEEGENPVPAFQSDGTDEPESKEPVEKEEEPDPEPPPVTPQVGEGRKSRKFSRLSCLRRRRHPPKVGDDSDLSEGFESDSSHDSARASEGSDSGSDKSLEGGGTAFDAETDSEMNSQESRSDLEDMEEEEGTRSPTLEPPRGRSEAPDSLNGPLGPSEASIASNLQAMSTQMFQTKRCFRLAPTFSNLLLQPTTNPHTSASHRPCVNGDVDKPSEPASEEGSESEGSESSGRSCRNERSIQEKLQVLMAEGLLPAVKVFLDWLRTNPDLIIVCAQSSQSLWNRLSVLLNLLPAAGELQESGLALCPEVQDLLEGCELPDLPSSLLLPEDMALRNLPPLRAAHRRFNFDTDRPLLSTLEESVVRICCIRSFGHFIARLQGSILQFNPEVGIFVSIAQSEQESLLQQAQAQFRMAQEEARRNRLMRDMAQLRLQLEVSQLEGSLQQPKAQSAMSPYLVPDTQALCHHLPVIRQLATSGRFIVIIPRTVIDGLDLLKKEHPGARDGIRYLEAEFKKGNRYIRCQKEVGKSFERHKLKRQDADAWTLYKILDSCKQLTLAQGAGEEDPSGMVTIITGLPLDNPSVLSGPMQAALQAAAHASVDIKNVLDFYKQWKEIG

Variants of: B1
Conditions: with est1a_human SMG6, Q86US8
est1a_human SMG6, Q86US8, sequence (Q86US8 whole entry): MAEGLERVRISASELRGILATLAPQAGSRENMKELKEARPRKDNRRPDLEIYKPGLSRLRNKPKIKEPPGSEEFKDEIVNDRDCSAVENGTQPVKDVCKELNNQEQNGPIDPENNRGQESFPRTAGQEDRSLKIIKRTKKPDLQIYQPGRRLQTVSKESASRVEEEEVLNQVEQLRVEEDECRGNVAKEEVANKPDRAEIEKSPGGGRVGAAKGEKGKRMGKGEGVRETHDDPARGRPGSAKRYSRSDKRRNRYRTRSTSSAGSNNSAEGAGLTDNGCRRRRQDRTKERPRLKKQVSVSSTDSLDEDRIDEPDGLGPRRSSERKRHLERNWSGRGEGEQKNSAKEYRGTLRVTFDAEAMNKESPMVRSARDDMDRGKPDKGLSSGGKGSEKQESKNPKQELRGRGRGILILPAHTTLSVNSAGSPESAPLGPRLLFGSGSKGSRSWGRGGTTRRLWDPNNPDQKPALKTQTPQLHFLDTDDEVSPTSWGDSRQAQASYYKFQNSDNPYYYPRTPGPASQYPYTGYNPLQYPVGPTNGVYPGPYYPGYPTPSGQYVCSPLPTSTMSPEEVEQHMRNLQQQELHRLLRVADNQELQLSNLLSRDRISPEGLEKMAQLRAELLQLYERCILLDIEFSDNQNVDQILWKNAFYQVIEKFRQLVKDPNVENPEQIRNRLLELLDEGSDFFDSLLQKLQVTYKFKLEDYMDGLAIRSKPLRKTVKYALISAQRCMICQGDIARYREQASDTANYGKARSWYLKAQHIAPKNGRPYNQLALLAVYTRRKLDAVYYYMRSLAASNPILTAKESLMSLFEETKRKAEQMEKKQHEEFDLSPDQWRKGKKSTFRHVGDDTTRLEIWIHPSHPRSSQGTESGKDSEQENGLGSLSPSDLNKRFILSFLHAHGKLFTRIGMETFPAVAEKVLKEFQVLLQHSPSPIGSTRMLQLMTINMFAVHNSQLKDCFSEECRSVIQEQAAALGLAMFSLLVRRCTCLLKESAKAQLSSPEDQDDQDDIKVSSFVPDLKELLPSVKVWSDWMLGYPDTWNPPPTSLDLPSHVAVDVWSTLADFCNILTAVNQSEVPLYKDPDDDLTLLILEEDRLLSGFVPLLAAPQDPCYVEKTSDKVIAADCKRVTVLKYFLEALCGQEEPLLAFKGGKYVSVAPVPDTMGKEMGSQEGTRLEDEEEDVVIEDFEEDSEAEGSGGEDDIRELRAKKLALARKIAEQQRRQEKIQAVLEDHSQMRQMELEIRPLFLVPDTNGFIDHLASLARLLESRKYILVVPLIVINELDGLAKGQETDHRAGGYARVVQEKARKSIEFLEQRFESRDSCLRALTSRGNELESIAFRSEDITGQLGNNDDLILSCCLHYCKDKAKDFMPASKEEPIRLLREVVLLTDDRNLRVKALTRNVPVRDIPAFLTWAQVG

Variant | effect of a mutation on the interaction
K498A | increasing interaction
D636A;E637A | increasing interaction

Variants of: B2
Conditions: with smg5_human SMG5, Q9UPR3

Variant | effect of a mutation on the interaction
K498A | increasing interaction
D636A;E637A | increasing interaction
